In patent US20230192897A1 (NUMAB THERAPEUTICS, published 2023):
“And” between values parts separate entries of the source, which are not always exact repeats. Equal values may be shown once. Read-outs that look alike come from different tables or passages of the source. Blank lines part the entries; values can stand above or below the molecule they belong to.

Assays:
[1] = target: T1, CD137 on Jurkat NFkB reporter cells (human, UniProt Q07011 24-255); experiment: cell-based or functional assay
[2] = target: T1, CD137 on Jurkat NFkB reporter cells; experiment: cell-based or functional assay; remark: listed apart in the source
[3] = target: T2, biotinylated human PDL1 (human, UniProt Q9NZQ7 19-238, limits assumed, biotinylated); experiment: competition ELISA PD-1/PDL1
T2 construct: also called biotinylated PDL1

[4] = target: T2, biotinylated human PDL1; experiment: competition ELISA B7.1/PDL1
Outline: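 IC₅₀ was derived by four-parameter logistic fitting of reference-subtracted A450/690 readings. The signal came from streptavidin-polyHRP40 (10 ng/ml) with a 6-minute TMB reaction detecting biotinylated PDL1 bound to the plate. Pre-mixed samples sat 1 h at RT before a 1.5 h plate incubation.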

[5] = target: T1, CD137 on Jurkat NFkB reporter cells; experiment: cell-based or functional assay; remark: listed apart in the source
[6] = target: human PDL1 on cells (human, UniProt Q9NZQ7 19-290); experiment: cell-based or functional assay
[7] = target: T1, CD137 on Jurkat NFkB reporter cells; experiment: cell-based or functional assay; remark: listed apart in the source
[8] = target: cynomolgus CD137-Fc chimeric protein (cynomolgus monkey, UniProt A9YYE7 24-186); experiment: SPR
Outline: (§1)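 Kinetics were fitted with a one-to-one Langmuir model to give apparent ka, kd and KD. Binders at 0.12-90 nM (three-fold series) flowed 3 min, with 10 min dissociation and 3 M MgCl₂ regeneration, on a Biacore T200.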

[9] = target: T3, mouse CD137-Fc chimeric protein (mouse, UniProt P20334 24-187, limits assumed); experiment: SPR
T3 sequence (looked up): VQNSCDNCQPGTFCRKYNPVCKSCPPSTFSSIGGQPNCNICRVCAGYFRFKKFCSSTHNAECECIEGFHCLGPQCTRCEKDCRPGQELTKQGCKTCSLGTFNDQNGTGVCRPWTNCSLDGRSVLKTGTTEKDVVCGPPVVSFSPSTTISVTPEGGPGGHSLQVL
Outline: as §1

[10] = target: T4, Fc tagged human PDL1 (human, UniProt Q9NZQ7 19-239); experiment: SPR
T4 construct: Bought (Sino Biological, cat. 10084-H02H); captured on the SPR chip; also called PDL1-Fc chimeric protein
Outline: as §1

[11] = target: T5, Fc tagged human CD137 (human, UniProt Q07011 24-186); experiment: SPR
T5 construct: also called CD137-Fc chimeric protein
Outline: as §1

EC50, NFkB reporter, CHO-PDL1 [1]: 0.0791 µg/mL | EC50, NFkB reporter, CHO-PDL1, 6 h [1]: 0.0565 µg/mL | EC50, NFkB reporter, CHO-PDL1, 6 h, +HSA [1]: 0.0777 µg/mL | EC50, NFkB reporter, CHO-PDL1, 24 h [1]: 0.0466 µg/mL | EC50, NFkB reporter, CHO-PDL1, 24 h, +HSA [1]: 0.0782 µg/mL | EC50, NFkB reporter, HCC827 with IFNg [1]: 0.114 µg/mL and 0.145 µg/mL and 0.108 µg/mL | EC50, NFkB reporter, HCC827 with IFNg, 24 h [1]: 0.0528 µg/mL | EC50, NFkB reporter, HCC827 without IFNg [1]: 0.212 µg/mL and 0.11 µg/mL and 0.112 µg/mL | EC50, NFkB reporter, HCC827 without IFNg, 24 h [1]: 0.0475 µg/mL | Top of curve fit, NFkB reporter, CHO-PDL1 [1]: 102 | Top of curve fit, NFkB reporter, HCC827 with IFNg [1]: 100 | Top of curve fit, NFkB reporter, HCC827 without IFNg [1]: 100 | EC50, NFkB reporter, CHO-PDL1 [2]: 0.0795 µg/mL and 0.104 µg/mL and 0.0865 µg/mL | Top of curve fit, NFkB reporter, CHO-PDL1 [2]: 100
Molecule: urelumab (antibody)

IC50 [3]: 0.0095 µg/mL | rel. IC50 (IC50 avelumab/IC50 test) [3]: 0.15 fold | IC50 [4]: 0.0093 µg/mL | rel. IC50 (IC50 avelumab/IC50 test) [4]: 0.78 fold | EC50, NFkB reporter, CHO-PDL1 [5]: 0.0337 µg/mL | IC50 (ng/ml), NF-AT potency assay [6]: 88.5 ng/mL | rel. IC50 (avelumab/test) [6]: 0.47 fold | IC50 (ng/ml), NFkB reporter, CHO-PD-L1 [7]: 33.7 ng/mL | max. activation (%), NFkB reporter, CHO-PD-L1 [7]: 432% | rel. IC50 (urelumab/test), NFkB reporter, CHO-PD-L1 [7]: 2.35 fold | Kd [8]: 6.9 nM | koff [8]: 0.01 s⁻¹ | kon [8]: 1.5e+06 M⁻¹ s⁻¹ | binding result [9]: no binding | kon [10]: 2.2e+06 M⁻¹ s⁻¹ | Kd [11]: 4.2 nM
B1: PRO951 (bispecific antibody)
chain: DIQMTQSPSSLSASVGDRVTITCQASQSINDYLAWYQQKPGKAPKLLIYKASTLASGVPSRFSGSGSGTDFTLTISSLQPEDFATYYCQQGYIITDIDNVFGTGTKVTVLGGGGGSEVQLVESGGGLVQPGGSLRLSCAASGFSFNNDYDMCWVRQAPGKGLEWIGCIDTGDGSTYYASWAKGRFTISRDNSKNTVYLQMNSLRAEDTAVYYCAREAASSSGYGMGYFDLWGQGTLVTVSSGGGGSGGGGSGGGGSGGGGSIQMTQSPSSLSASVGDRVTITCQSSQSVYDNNWLAWYQQKPGKAPKLLIYRASNLASGVPSRFSGSGSGTDFTLTISSLQPEDFATYYCQGTYLSSNWYWAFGTGTKVTVLGGGGGSQVQLQESGPGLVKPSETLSLTCKVSGFSFSSGYDMCWIRQPPGKGLEWIGCVVAGSVDITYYASWAKGRVTISVDSSKNQFSLKLSSVTAADTAVYYCARKDAYSDAFNLWGQGTLVTVSS
notes: scDb anti-PDL1 x CD137; also called 38-27-C05 sc02 scDb-i/33-03-G02 sc01 scDb-o
